Assay results published in patent US20260148804A1 (NANJING GENSCRIPT BIOTECH, published 2026).

Molecular target: T1, recombinant TNFRSF9 protein (Homo sapiens (Human), UniProt Q07011 24-186)
T1 construct: also called 4-1BB; antigen
Assay: indirect ELISA, plate coated with 0.5 ug/ml recombinant TNFRSF9 protein, antibody titrated 3-fold from 1 ug/ml
Experimental: The antibody affinity detection method was an enzyme-linked immunosorbent assay (ELISA) based on an indirect method. Indirect ELISA was used for evaluating the ability of the purified antibody to bind the antigen TNFRSF9 protein. The specific steps were as follows: the ELISA plate was coated with 0.5 μg/ml recombinant TNFRSF9 protein in PBS at 100 μl/well at 4° C. overnight. The plate was washed with PBS-T (0.05% Tween) and blocked with 250 μl/well of PBST containing 1% BSA at 37° C. for 2 hours. Subsequently, the blocking solution was discarded, and 100 μl of the 1 μg/ml purified antibody was added to the first well and 3-fold diluted in a gradient to prepare a total of 11 serial test concentrations, and additionally a blank well was prepared. The plate was then incubated at 37° C. for 1 hour. […] The plate was washed four times with PBST, a TMB color development solution (GenScript) was then added, and the plate was incubated in the dark at 25° C. for 15 minutes. […] The plate was read at 450 nm using a microplate reader.

B1: 81E11WTH (antibody, V domains shown)
VH: QSVKESEGGLFKPTDTLTLACTVSGFSLSYNAITWVRQAPGNGLEWIGVINYDGTTVYASWAKSRSTITRNTNLNTVTLKMTSLTAADTATYFCARNFNIWGPGTLVTVSS
VL: AAVLTQTPSPVSVTVGGTVTINCQASQSVDNNNYLAWFQQKPGQPPKQLIYSASTLASGVSSRFKGSGSGTQFTLTISGVQCDDAATYYCLGEFSASSGDWNAFGGGTEVVVK
notes: also called control 81E11WTH
With B1 the EC50 was 2.6 ng/mL.
